# Reference: patent publication US20190169240, “DNA-BINDING PROTEIN USING PPR MOTIF, AND USE THEREOF” (KYUSHU UNIVERSITY, NAT'L UNIVERSITY CORPORATION, published 2019)
# T1: GUN1-VP64 (PPR motif region) (Arabidopsis thaliana, UniProt Q9SIC9 SEQ:234-621)
# T1 chain: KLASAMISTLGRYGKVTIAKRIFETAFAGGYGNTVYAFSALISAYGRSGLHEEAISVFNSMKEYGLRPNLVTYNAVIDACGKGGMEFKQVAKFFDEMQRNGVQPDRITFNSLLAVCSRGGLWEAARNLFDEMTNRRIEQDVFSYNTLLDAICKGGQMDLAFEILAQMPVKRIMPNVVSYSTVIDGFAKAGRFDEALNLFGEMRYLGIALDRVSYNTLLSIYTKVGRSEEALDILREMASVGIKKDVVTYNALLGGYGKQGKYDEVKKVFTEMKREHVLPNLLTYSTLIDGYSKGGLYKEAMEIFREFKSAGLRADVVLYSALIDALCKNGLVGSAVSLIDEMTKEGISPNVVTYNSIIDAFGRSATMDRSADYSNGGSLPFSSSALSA
# T2: pTac2-VP64 (PPR motif region) (Arabidopsis thaliana, UniProt Q9S7Q2 SEQ:106-632)
# T2 chain: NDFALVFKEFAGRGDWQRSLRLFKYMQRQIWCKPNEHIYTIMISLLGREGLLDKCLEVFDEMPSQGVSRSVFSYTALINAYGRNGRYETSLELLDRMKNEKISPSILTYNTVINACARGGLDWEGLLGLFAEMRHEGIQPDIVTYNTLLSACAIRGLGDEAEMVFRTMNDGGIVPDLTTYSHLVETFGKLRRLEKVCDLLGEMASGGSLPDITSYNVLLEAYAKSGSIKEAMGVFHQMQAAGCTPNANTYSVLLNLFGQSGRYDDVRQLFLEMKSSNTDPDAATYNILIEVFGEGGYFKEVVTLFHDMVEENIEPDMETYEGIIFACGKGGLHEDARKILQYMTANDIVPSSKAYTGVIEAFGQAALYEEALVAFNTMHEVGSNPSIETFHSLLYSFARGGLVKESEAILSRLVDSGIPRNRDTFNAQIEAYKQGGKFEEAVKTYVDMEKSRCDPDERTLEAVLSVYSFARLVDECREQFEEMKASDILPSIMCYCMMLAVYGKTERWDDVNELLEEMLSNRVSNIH
# B1: GUN1 predicted target (dsDNA)
# DNA 1: AATTTGTCGAT
# DNA 2: ATCGACAAATT
# B2: pTac2 predicted target (dsDNA)
# DNA 1: AACTTTCGTCACTCA
# DNA 2: TGAGTGACGAAAGTT
# Key:
# Conditions in all cases: tags: N-terminal Flag and nuclear localization signal, C-terminal VP64
# [1] = target: T1, GUN1-VP64 (PPR motif region); assay: cell_activity; 4x target reporter; HEK293T, Fluc/Rluc vs pminCMV-luc2
# Description: (§1) A reporter vector (pminCMV-luc2, SEQ ID NO: 10) was prepared, in which the firefly luciferase gene was ligated downstream from the Minimal CMV promoter, and a multi-cloning site was placed upstream of the promoter. The predicted target sequence of each PPR was inserted into the vector at the multi-cloning site. The target sequence of each PPR ([…] for p63, […] for pTac2, and […] for GUN1, SEQ ID NOS: 11 to 13 in Sequence Listing) was determined by predicting the motif-DNA recognition codes of DNA-binding type PPR from the motif-RNA recognition codes observed in the RNA-binding type PPR. For each PPR, sequences containing 4 or 8 of target sequences were prepared, and used in the following assay. The nucleotide sequences of the vectors are shown as SEQ ID NOS: 14 to 19 in Sequence Listing. […]
# (§2) The luciferase activity was compared for the cases of introducing pTac2-VP64 or GUN1-VP64 together with pminCMV-luc2 for a negative control, or the reporter vector having 4 or 8 target sequences (table mentioned below, FIG. 6). The comparison of the activity was performed on the basis of standardized scores obtained by dividing the measured values obtained with Fluc (firefly luciferase) with the measured value obtained with Rluc (Renilla luciferase) as the reference (Fluc/Rluc).
# [2] = target: T1, GUN1-VP64 (PPR motif region); assay: cell_activity; 8x target reporter; HEK293T, Fluc/Rluc vs pminCMV-luc2
# Description: as §1, §2
# [3] = target: T2, pTac2-VP64 (PPR motif region); assay: as above
# Description: as §1, §2
Binder,activity [1] [fold activation],activity [2] [fold activation],activity [3] [fold activation]
B1,2.88,3.15,–
B2,–,–,4.89
